Tested on: CD4+ T cells (ConA-stimulated PBMC)
Test: ConA mitogen-induced CD4+ T cell proliferation in CFSE-stained PBMC (PBMC responder/suppression assay)
Type: cell-based, canine
Details: for effect of pre-treating WJ-MSC EV on their suppression of CD4+ T cell division: 0.1% Triton-X, 2 μg/ml RNAse A, proteinase K 30 min 37°C, heparinase 0.006 U/ml 3 hours, 10^4 EV:1 PBMC
Procedure: Serum-free culture medium from canine Wharton's Jelly mesenchymal stem cells (WJ-MSC: CD44^+, CD90^+, CD34^−, CD45^−, MHCII^−, n=6 cell lines) was collected after 48 hours, and extracellular vesicles (WJ-EV) were isolated by differential centrifugation. WJ-EV output was assessed using single vesicle nanoparticle tracking analysis (NTA). CFSE-stained peripheral blood mononuclear cells (PBMC) were collected from healthy dogs (n=8), exposed to Concanavalin A mitogen (ConA; 5 μg/ml) and co-incubated with WJ-MSC (1:10) across transwell membrane (0.4 μm pore size) or with WJ-MSC EV (1:10^4)±10 μM SB431542 (TGFβR1 inhibitor) or TGF-β neutralizing (e.g., inhibiting) antibody (Ab) for 72 hours. Analysis of CFSE fluorescence using FlowJo (v7.6.5) yielded % CD4^+ cells that had undergone division (T-cell proliferation).
PBMC responder assay: Twelve healthy adult purpose-bread Beagle dogs (5 neutered males, 7 spayed females) housed at the Laboratory Animal Medicine department at the Cummings School of Veterinary Medicine at Tufts University served as blood donors under an approved protocol. […] or WJ-MSC were tested in triplicate against a minimum of 3 different PBMC donor cell samples (see Figure legends for ‘n’ of each experiment). Healthy status was confirmed by clinical examination, and hematological and serum biochemical testing within six months of blood sampling. All dogs were fasted for 12 hours prior to peripheral blood sampling. Peripheral blood samples were taken via jugular venipuncture using a 21 gauge needle, and blood was immediately placed into an EDTA collection tube and rotated 1-2 times gently. Blood was diluted 1:1 with cold PBS or centrifuged (1300×g, 10 min) prior to dilution 1:2 in PBS, followed by density-gradient centrifugation using Ficoll-Paque (density 1.077; GE Healthcare Life Sciences) to harvest peripheral blood mononuclear cells (PBMC). PBMC were washed in RPMI (Life Technologies) supplemented with 10% heat-inactivated fetal bovine serum (Gibco), […] (Life Technologies), 100 μM β-mercaptoethanol (Sigma-Aldrich), 10,000 U/ml penicillin-streptomycin, 2 mM L-glutamine (Life Technologies), and 2.2 mg/mL of sodium bicarbonate (Thermo Fisher Scientific) (complete RPMI, ‘cRPMI’). For mitogen induced lymphocytes proliferation assays, PBMC were suspended in 1 ml cRPMI and 0.5 μof 10 mM carboxyfluorescein succinimidyl ester (CFSE, Thermo Fisher Scientific) and were incubated (10 min). For initial characterization of WJ-MSC effects on responder PBMC, PBMC were plated on a 24-well plate on the top of a 0.4 μm Transwell (Corning) across from the WJ-MSC in a 10:1 ratio (PBMC:MSC) in a total volume of 1 ml medium (n=3 technical replicates/sample). All plates were incubated at 37° C. in the dark for 72 hours prior to analysis.
Dose-responses of TV MSC-EV: To investigate the dose response of PBMC to WJ-MSC EV, the […] were plated on a 96-well plate in cRPMI with addition of 1 mM ATP, with or without 5 μg/ml Concanavalin A (ConA, Sigma-Aldrich). Responder PBMC were incubated with WJ-MSC EV in a total volume of 200 μL medium (n=3 technical replicates per sample). PBMC were incubated with WJ-MSC EV in a 1:10^2, 1:10^3, or 1:10^4 (PBMC:EV) ratio. After 72 hours of incubation, the PBMC were collected and surface stained for CD4 (rat anti-canine CD4-Alexa 647, clone YKIX302.9, AbD Serotec). Cells were stained for 30 minutes, washed twice with cold PBS and 5% FBS, and resuspended in 200 μl PBS and 5% FBS with 5 μl 7AAD (Becton Dickinson) for analysis by flow cytometry (Accuri C6, Becton Dickinson). The effect of WJ-MSC or WJ-MSC EV on CD4-positive (CD4^+) T cell (i.e., T helper cell) proliferation (percentage of cells proliferating, number of divisions for proliferating cells) was measured by evaluating CFSE fluorescence utilizing the FlowJo® proliferation platform (FlowJo, V10, Ashland, Oreg.) after gating on the viable CD4^+ lymphocyte population. […]

Molecule	effect of pre-treating WJ-MSC EV on their suppression of CD4+ T cell division	suppression of mitogen driven T cell division by exogenous TGF-β (5 ng/ml added to ConA stimulated PBMC)	suppression of mitogen driven T cell division by exogenous TGF-β (10 ng/ml added to ConA stimulated PBMC)	suppression of mitogen driven T cell division by exogenous TGF-β (50 ng/ml added to ConA stimulated PBMC)
RNase: RNAse A enzyme used to pre-treat EV (protein, UniProt P61823 27-150, looked up) Ribonuclease pancreatic: KETAAAKFERQHMDSSTSAASSSNYCNQMMKSRNLTKDRCKPVNTFVHESLADVQAVCSQKNVACKNGQTNCYQSYSTMSITDCRETGSSKYPNCAYKTTQANKHIIVACEGNPYVPVHFDASV	reduced	–	–	–
proteinase K: protease used with RNAse A to pre-treat EV (protein, UniProt P06873 106-384, looked up) Proteinase K: AAQTNAPWGLARISSTSPGTSTYYYDESAGQGSCVYVIDTGIEASHPEFEGRAQMVKTYYYSSRDGNGHGTHCAGTVGSRTYGVAKKTQLFGVKVLDDNGSGQYSTIIAGMDFVASDKNNRNCPKGVVASLSLGGGYSSSVNSAAARLQSSGVMVAVAAGNNNADARNYSPASEPSVCTVGASDRYDRRSSFSNYGSVLDIFGPGTSILSTWIGGSTRSISGTSMATPHVAGLAAYLMTLGKTTAASACRYIADTANKGDLSNIPFGTVNLLAYNNYQA	reduced	–	–	–
TGF-β3: recombinant human TGF-β3 (Sigma) (protein, UniProt P10600 301-412, looked up) Transforming growth factor …: ALDTNYCFRNLEENCCVRPLYIDFRQDLGWKWVHEPKGYYANFCSGPCPYLRSADTTHSTVLGLYNTLNPEASASPCCVPQDLEPLTILYYVGRTPKVEQLSNMVVKSCKCS	–	not	suppressed	suppressed
heparinase: heparinase III (Sigma), disrupts heparin sulfate side chains on beta-glycan (protein, UniProt Q59289 25-659, looked up) Heparin-sulfate lyase: QSSSITRKDFDHINLEYSGLEKVNKAVAAGNYDDAAKALLAYYREKSKAREPDFSNAEKPADIRQPIDKVTREMADKALVHQFQPHKGYGYFDYGKDINWQMWPVKDNEVRWQLHRVKWWQAMALVYHATGDEKYAREWVYQYSDWARKNPLGLSQDNDKFVWRPLEVSDRVQSLPPTFSLFVNSPAFTPAFLMEFLNSYHQQADYLSTHYAEQGNHRLFEAQRNLFAGVSFPEFKDSPRWRQTGISVLNTEIKKQVYADGMQFELSPIYHVAAIDIFLKAYGSAKRVNLEKEFPQSYVQTVENMIMALISISLPDYNTPMFGDSWITDKNFRMAQFASWARVFPANQAIKYFATDGKQGKAPNFLSKALSNAGFYTFRSGWDKNATVMVLKASPPGEFHAQPDNGTFELFIKGRNFTPDAGVFVYSGDEAIMKLRNWYRQTRIHSTLTLDNQNMVITKARQNKWETGNNLDVLTYTNPSYPNLDHQRSVLFINKKYFLVIDRAIGEATGNLGVHWQLKEDSNPVFDKTKNRVYTTYRDGNNLMIQSLNADRTSLNEEEGKVSYVYNKELKRPAFVFEKPKKNAGTQNFVSIVYPYDGQKAPEISIRENKGNDFEKGKLNLTLTINGKQQLVLVP	reduced EV suppression	–	–	–
heat-inactivated heparinase: heat-inactivated heparinase (control) (protein, UniProt Q59289 25-659, looked up, heat-inactivated) Heparin-sulfate lyase: QSSSITRKDFDHINLEYSGLEKVNKAVAAGNYDDAAKALLAYYREKSKAREPDFSNAEKPADIRQPIDKVTREMADKALVHQFQPHKGYGYFDYGKDINWQMWPVKDNEVRWQLHRVKWWQAMALVYHATGDEKYAREWVYQYSDWARKNPLGLSQDNDKFVWRPLEVSDRVQSLPPTFSLFVNSPAFTPAFLMEFLNSYHQQADYLSTHYAEQGNHRLFEAQRNLFAGVSFPEFKDSPRWRQTGISVLNTEIKKQVYADGMQFELSPIYHVAAIDIFLKAYGSAKRVNLEKEFPQSYVQTVENMIMALISISLPDYNTPMFGDSWITDKNFRMAQFASWARVFPANQAIKYFATDGKQGKAPNFLSKALSNAGFYTFRSGWDKNATVMVLKASPPGEFHAQPDNGTFELFIKGRNFTPDAGVFVYSGDEAIMKLRNWYRQTRIHSTLTLDNQNMVITKARQNKWETGNNLDVLTYTNPSYPNLDHQRSVLFINKKYFLVIDRAIGEATGNLGVHWQLKEDSNPVFDKTKNRVYTTYRDGNNLMIQSLNADRTSLNEEEGKVSYVYNKELKRPAFVFEKPKKNAGTQNFVSIVYPYDGQKAPEISIRENKGNDFEKGKLNLTLTINGKQQLVLVP	absent	–	–	–

Source: patent US20200392219A1, “EXTRACELLULAR VESICLES COMPRISING MEMBRANE-TETHERED TGF-BETA, COMPOSITIONS AND METHODS OF USE THEREOF” (TRUSTEES OF TUFTS COLLEGE, priority 2017, published 2020)
